Results on 1 protein are retold here after patent US20100144027.

The target in the data set is enterokinase.

B1: protein of the present invention having an amino acid sequence shown in SEQ ID NO:1 (protein)
chain: YDPEAASAPGSGNPCHEASAAQKENAGEDPGLARQAPKPRKQRSSLLEKGLDGAKKAVGGLGKLGKDAVEDLESVGKGAVHDVKDVLDSVL
For the protein B1, the “amidolytic activity against the fluorescent peptide substrate for trypsin (increase in fluorescence intensity)” value was “a minimal proteolytic activity exhibited by enterokinase alone was significantly enhanced by the protein of the present invention immunoprecipitated from JAR cells”.
